In patent US20250002610A1 (Genmab, published 2025):

T1: cynomolgus monkey DR4 with death domain deletion on ExpiCHO-S cells (cynomolgus monkey (Macaca fascicularis))
T1 construct: also called cynomolgus DR4
T1 chain: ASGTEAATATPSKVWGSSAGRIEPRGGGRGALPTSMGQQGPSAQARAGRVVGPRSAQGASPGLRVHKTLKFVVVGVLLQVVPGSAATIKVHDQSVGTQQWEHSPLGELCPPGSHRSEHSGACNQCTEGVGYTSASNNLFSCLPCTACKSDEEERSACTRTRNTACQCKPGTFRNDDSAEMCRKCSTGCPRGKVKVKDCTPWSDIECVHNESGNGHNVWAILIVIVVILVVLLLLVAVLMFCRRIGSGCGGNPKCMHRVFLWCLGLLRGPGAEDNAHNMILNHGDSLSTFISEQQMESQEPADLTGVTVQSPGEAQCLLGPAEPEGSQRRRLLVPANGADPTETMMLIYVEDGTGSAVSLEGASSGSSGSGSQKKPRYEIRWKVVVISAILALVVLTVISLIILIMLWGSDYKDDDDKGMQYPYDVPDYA

T2: human FAPα (Fibroblast activation protein alpha), cell surface expressed (human, UniProt Q12884 1-760)
T2 construct: Endogenous on human lung fibroblasts and CAFs
T2 sequence: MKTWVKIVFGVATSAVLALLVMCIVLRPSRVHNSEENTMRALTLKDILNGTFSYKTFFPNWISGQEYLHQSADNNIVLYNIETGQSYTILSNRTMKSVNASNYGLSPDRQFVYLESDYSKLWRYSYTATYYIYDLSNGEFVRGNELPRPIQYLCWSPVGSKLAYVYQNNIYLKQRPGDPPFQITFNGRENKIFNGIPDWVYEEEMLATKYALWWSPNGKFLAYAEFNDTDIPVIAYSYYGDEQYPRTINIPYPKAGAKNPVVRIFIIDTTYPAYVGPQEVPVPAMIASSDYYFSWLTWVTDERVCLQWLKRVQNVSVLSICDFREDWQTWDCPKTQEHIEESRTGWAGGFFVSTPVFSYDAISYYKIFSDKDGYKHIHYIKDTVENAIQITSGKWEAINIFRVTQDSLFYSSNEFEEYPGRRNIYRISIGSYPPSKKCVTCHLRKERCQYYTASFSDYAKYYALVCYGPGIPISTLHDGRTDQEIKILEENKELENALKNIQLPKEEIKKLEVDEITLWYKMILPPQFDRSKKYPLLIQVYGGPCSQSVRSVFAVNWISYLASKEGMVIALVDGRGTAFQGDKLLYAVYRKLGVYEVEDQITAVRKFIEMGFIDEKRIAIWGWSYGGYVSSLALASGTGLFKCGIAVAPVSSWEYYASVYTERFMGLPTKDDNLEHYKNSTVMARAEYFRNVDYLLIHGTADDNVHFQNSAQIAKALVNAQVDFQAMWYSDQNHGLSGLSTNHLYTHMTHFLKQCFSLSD

B1: IgG1-DR4-FERR (antibody, V domains shown)
VH: QVQLQESGPGLVKPSGTLSLTCAVSGGSISSYSWWSWIRQPPGKGLEWIGELYHSGSTNYNPSLKSRVTISVDKSKNQFSLKLRSVTAADTAVYYCVRGVATIDYWGQGTLVTVSS
VL: QSALTQPPSASGSPGQSVTISCTGTSSDVGGYNFVSWYQQDPGKAPKLLIYEVTKRPSGVPDRFSGSKSGNTASLTVSGLQAEDEADYYCSSYAGSNNVMFGGGTKLTVLG
notes: Bivalent monoclonal IgG1 lambda
B2: BisG1-FAPα-FEAL/b12-FEAR (bispecific antibody, human IgG1, kappa)
heavy 1: EVQLLESGGGLVQPGGSPRLSCEASGFTFSSYALSWVRQAPGKGLEWVSAISGSGGGRYYADSVKGRFTISRDNSKNTLFLQMNSLRAEDTAVYYCAKEGYSSSGTYWDHWGQGTLVTVSSASTKGPSVFPLAPSSKSTSGGTAALGCLVKDYFPEPVTVSWNSGALTSGVHTFPAVLQSSGLYSLSSVVTVPSSSLGTQTYICNVNHKPSNTKVDKRVEPKSCDKTHTCPPCPAPEFEGGPSVFLFPPKPKDTLMISRTPEVTCVVVAVSHEDPEVKFNWYVDGVEVHNAKTKPREEQYNSTYRVVSVLTVLHQDWLNGKEYKCKVSNKALPAPIEKTISKAKGQPREPQVYTLPPSREEMTKNQVSLTCLVKGFYPSDIAVEWESNGQPENNYKTTPPVLDSDGSFLLYSKLTVDKSRWQQGNVFSCSVMHEALHNHYTQKSLSLSPG
light 1: AIQMTQSPSSVSASVGDRVTITCRASQGVSSWLAWYQQKPGRAPKLLIYVASTLQSGVPSRFSGSGSGTDFTLTINSLQPEDFATYYCQQANSFPPTFGQGTRLEMKRTVAAPSVFIFPPSDEQLKSGTASVVCLLNNFYPREAKVQWKVDNALQSGNSQESVTEQDSKDSTYSLSSTLTLSKADYEKHKVYACEVTHQGLSSPVTKSFNRGEC
heavy 2: QVQLVQSGAEVKKPGASVKVSCQASGYRFSNFVIHWVRQAPGQRFEWMGWINPYNGNKEFSAKFQDRVTFTADTSANTAYMELRSLRSADTAVYYCARVGPYSWDDSPQDNYYMDVWGKGTTVIVSSASTKGPSVFPLAPSSKSTSGGTAALGCLVKDYFPEPVTVSWNSGALTSGVHTFPAVLQSSGLYSLSSVVTVPSSSLGTQTYICNVNHKPSNTKVDKRVEPKSCDKTHTCPPCPAPEFEGGPSVFLFPPKPKDTLMISRTPEVTCVVVAVSHEDPEVKFNWYVDGVEVHNAKTKPREEQYNSTYRVVSVLTVLHQDWLNGKEYKCKVSNKALPAPIEKTISKAKGQPREPQVYTLPPSREEMTKNQVSLTCLVKGFYPSDIAVEWESNGQPENNYKTTPPVLDSDGSFFLYSRLTVDKSRWQQGNVFSCSVMHEALHNHYTQKSLSLSPG
light 2: EIVLTQSPGTLSLSPGERATFSCRSSHSIRSRRVAWYQHKPGQAPRLVIHGVSNRASGISDRFSGSGSGTDFTLTITRVEPEDFALYYCQVYGASSYTFGQGTKLERKRTVAAPSVFIFPPSDEQLKSGTASVVCLLNNFYPREAKVQWKVDNALQSGNSQESVTEQDSKDSTYSLSSTLTLSKADYEKHKVYACEVTHQGLSSPVTKSFNRGEC
notes: Fab-arm exchange of IgG1-FAPα-FEAL and IgG1-b12-FEAR

Experiments:
[1] = target: T1, cynomolgus monkey DR4 with death domain …; assay: flow cytometry, ExpiCHO-S cells expressing cynomolgus monkey DR4, n = 1
Experimental: Binding of BisG1-FAPα-FERL/DR4-FERR, BisG1-DR4-FEAL/b12-FEAR and IgG1-DR4-FERR to DR4 of various species commonly used for nonclinical toxicology studies was assessed by flow cytometry using ExpiCHO-S cells transiently expressing DR4 from different animal species. In contrast to other species, rodents only express one DR which has highest homology with human DR5. Therefore, ExpiCHO-S cells transiently expressing rat and mouse DR protein were used instead. All DR constructs lack the intracellular DD to avoid apoptosis of transfected cells upon DR(4) activation. IgG1-b12 was used as negative control.

[2] = target: T2, human FAPα (Fibroblast activation …); assay: flow cytometry, human lung fibroblasts, n = 2
Experimental: Human lung fibroblasts and CAFs (50,000 cells/well) were seeded in 96-Well round bottom plates (Greiner Bio-one, Cat #650101). Antibody dilutions were prepared using fluorescence-activated cell sorting (FACS) buffer, consisting of phosphate buffer saline (PBS, Lonza, Cat #BE17-517Q)+1% Bovine Serum Albumin (BSA, Roche, Cat #10735086001)+0.02% Sodium Azide (Bio-World, Cat #41920044-3). Plates were centrifuged, supernatant was removed, cells were resuspended in 50 μL of human Fc Block (BD, Cat #564220, diluted 1:100 in FACS buffer) and 50 μL of viability stain TO-PRO-3 Iodide (Thermo Fisher, Cat #T3605, diluted 1: 25,000 in FACS buffer), and incubated for 15 min at 4° C. Plates were washed three times with FACS buffer. Plates were centrifuged, supernatant was removed, cells were resuspended in 50 μL of antibody dilutions (concentration range 90-0.0005 μg/mL, three-fold dilution steps using FACS buffer) of BisG1-FAPα-FERL/DR4-FERR, BisG1-FAPα-FERL/b12-FERR, BisG1-b12-FERL/b12-FERR (top six concentrations only for CAFs culture) or IgG1-FAPα-FERL (top four concentrations only for CAFs culture) and incubated for 30 min at 4° C. Cells were washed three times with FACS buffer and resuspended in 50 μL of Fluorescein isothiocyanate (FITC)-labeled polyclonal antibody goat anti-mouse IgG1 (Jackson Immuno Research, Cat #109-096-097, diluted 1:100 in FACS buffer). […] Antibody binding to viable cells (TO-PRO-3 negative) was analyzed by flow cytometry on a FACSCelesta™ (BD biosciences) and data were processed using FlowJo_v10.8.1 (FlowJo LLC). Geomean fluorescence intensity, gMFI, was determined and visualized using GraphPad Prism. Binding curves were analyzed using nonlinear regression analysis. […]
Binding of FAPα-targeting monoclonal antibody clones, IgG1-FAPα-FEAL and IgG1-FAP5-FEAL, and bispecific antibodies carrying a binding arm derived from the two FAPα-binding clones (BisG1-FAPα-FEAL/b12-FEAR and BisG1-FAP5-FEAL/b12-FEAR) to human lung fibroblasts, which endogenously express FAPα, was compared and analyzed by flow cytometry.

Row | Binder | EC50 [1] [µg/mL] | EC50 [2] [µg/mL]
1 | B1 | 2.57 | 
2 | B2 |  | 0.044
